Test results taken from article PMC6433120 (Nature, 2018).

Target: T1, CC-SAM domain of murine KSR1 (mouse, UniProt Q61097 25-170)
T1 sequence (looked up): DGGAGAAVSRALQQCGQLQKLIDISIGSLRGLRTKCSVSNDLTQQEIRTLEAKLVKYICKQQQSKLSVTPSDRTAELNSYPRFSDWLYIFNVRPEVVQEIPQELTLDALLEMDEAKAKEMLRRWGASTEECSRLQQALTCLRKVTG
Assay: NMR titration

binding result: binds
B1: BRS domain of human BRAF (domain or fragment, UniProt P15056 36-114, looked up)
chain: SSAADPAIPEEVWNIKQMIKLTQEHIEALLDKFGGEHNPPSIYLEAYEEYTSKLDALQQREQQLLESLGNGTDFSVSSS
